Measurements taken from the supplement of paper PMC9170038.

Tested on: MS2 coat protein
Test: apparent KD of MS2 coat protein; designed switch direction (-1 OFF switch, 1 ON switch): -1; higher = weaker reporter binding
Procedure, shortened: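 An oligonucleotide input, 200 uM small-molecule ligand, or no input was present during titration of SNAP-549-labelled MS2 coat protein, which was doubled from 0.7 or 1.5 nM to 3 µM. Designed RNA switches had been transcribed on Illumina chips by stalled E. coli RNA polymerase. Apparent KD per design is the median over clusters of curves fitted to normalised cluster fluorescence.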

[1] = input ligand: microRNA oligo, concentration not stated
[2] = Eterna round: R95, input ligand: microRNA oligo, concentration not stated
[3] = Eterna round: R95, input ligand: FMN 200 uM
[4] = Eterna round: R95, input ligand: none

Sequence	apparent KD of MS2 coat protein (input ligand: FMN 200 uM)	apparent KD of MS2 coat protein (input ligand: none)	apparent KD of MS2 coat protein [2]	further results
GUGCCGCGAGGAUAUACAGACGGGUCCAUUACGUGUCUCGGACUUGAGGAUCACCCAAGUAGAAGGCGUUUCAG [salish99_ex2_r4_624] (Eterna round: R97, puzzle: Exclusion 2)	20.7 nM	38.4 nM		
GUGCGUGGCUAGGAUAUUGAGGAAUUUAGUCAGCGAGAAGGAGCCACAUGAGGAUCACCCAUGUGGUGAAGCUC [salish99_ex6_r4_001] (Eterna round: R97, puzzle: Exclusion 6)	70.2 nM	17.9 nM		
GUGGCACAUGAGGAUCACCCAUGUUAGGAUAUGCUCAAAACGCCCUAGGGUAAGCUGUGUAGAAGGAGCAGGAC [Eternabot (L1) Solution 52] (Eterna round: R97, puzzle: Exclusion 1)	33.7 nM	35.6 nM		
GUGGCGGAUGCGAACAUGAGGAUCACCCAUGUACAGUCCCUACAGGAUAUCCGCAGUGCCUAGCAGGAGAAGGGUAGGAGCACA [Eternabot solution 40] (Eterna round: R96, puzzle: Exclusion NG 3)	16 nM	17.9 nM		apparent KD of MS2 coat protein [1]: 10.7 nM
GUGGGUCCUCACGGUGCUACAUGAGGAUCACCCAUGUGGAUUGAGGAUAUCGUAACCCGACGGGACGAGAAGGCAGUUUACUGU [Ex NG3 #99] (Eterna round: R96, puzzle: Exclusion NG 3)	66.2 nM	27.2 nM		apparent KD of MS2 coat protein [1]: 14.8 nM
GUGGGUUACAUGAGGAUCACCCAUGUAUAGUGGGAAGAGAGAUAGGAUAUGAUGUGAGAAUUAUAUUAGAAGGAUCGAGACUAG [AK ExNG3-2.6] (Eterna round: R96, puzzle: Exclusion NG 3)	632 nM	351 nM		apparent KD of MS2 coat protein [1]: 236 nM
GUGGUACAUGAGGAUCACCCAUGUUAGGAUAUCGCGUGAGGUUUUACUUCCGCGCGCGCGAGAAGGGACGUCUU (puzzle: Exclusion 1)			23.3 nM	
GUGGUCCGAGGAUAUAUUAUGUGAUACAUGAGGAUCACCCAUGUUAUAUGAUGGAUGUUAGUAGAAGGCGGACUAC [Mat - Exclusion 5 - JL mod - D82] (puzzle: Exclusion 5)			86.2 nM	apparent KD of MS2 coat protein [3]: 95.2 nM; apparent KD of MS2 coat protein [4]: 96.4 nM
GUGGUCUAUGUAGGAUAUACGUUUGUGCGAUGCGUAGAAGGACAUGAGGAUCACCCAUGUGUGCGAGGAUCACCCGUGUGUUGU [double] (Eterna round: R96, puzzle: Exclusion NG 1)	158 nM	100 nM		apparent KD of MS2 coat protein [1]: 83.9 nM
GUGGUGGGUUUUUCGAGUAACAUGAGGAUCACCCAUGUAUUAGUUGGAUGUAUCAAGCUUUGUGCUCGACUUAUAUA [JR_SV3TOV1_Sub044] (puzzle: Sensor v3, turn-off variant 1)			442 nM	apparent KD of MS2 coat protein [3]: 659 nM; apparent KD of MS2 coat protein [4]: 696 nM
GUGGUUUGUGUAGGAUAUUCGUUUGUGCGGUGCGGAGAAGGACAUGAGGAUCACCCAUGUGUGCGAGGAUCACCCGUGUGUUGU [double 2 (less A)] (Eterna round: R96, puzzle: Exclusion NG 1)	55.6 nM	50.5 nM		apparent KD of MS2 coat protein [1]: 40.3 nM
GUGUACAGAGGAUAUACACGAGUAGUUACGAAAGUAACUACACAUGAGGAUCACCCAUGUAGAAGGCUGUACAC [Dot plot directed] (puzzle: Exclusion 2)			20.4 nM	
GUGUACUGAGGAUAUGCUGGAAUCUAGCGAAGCUAGGUUCCACAUGAGGAUCACCCAUGUAGAAGGCGGUACAC [Dot plot directed A v6] (puzzle: Exclusion 2)			29.1 nM	
GUGUAGAUAGGAUAUGCUUAGAGCUUACGAAAGUAGGCUCUACAUGAGGAUCACCCAUGUAGAAGGGUCUACAC [Dot plot directed A v16] (puzzle: Exclusion 2)			24.9 nM	
GUGUAGAUAGGAUAUGCUUUGAGCCUACGAAAGUACGCUCGACAUGAGGAUCACCCAUGUAGAAGGGUUUACAC [LRO-Excl2-05] (puzzle: Exclusion 2)			88.7 nM	
GUGUAGUCAGGAUAUACAUAGGAAGAGAAGAUAAGAUAAGCACAUGAGGAUCACCCAUGUAGAAGGGACAGUGU [Excluse me!! 2 - Jieux - Exclusion 2] (puzzle: Exclusion 2)			66.1 nM	apparent KD of MS2 coat protein [3]: 77.6 nM; apparent KD of MS2 coat protein [4]: 61 nM
GUGUUACAUGAGGAUCACCCAUGUGAGGAUAUGAGUCAGUCACGGUGACGUGGCUGACUCAGAAGGCACAAAGG [Mat - Exclusion 1 - JL Mod - D39] (Eterna round: R97, puzzle: Exclusion 1)	291 nM	93.9 nM		
GUUAAACAUGAGGAUCACCCAUGUAAGGAUAUGCUGAGGUAGAGAUGAAGUGAAUGAAGCAGAAGGUACAAUUG [Mat - Mod of JL D55] (puzzle: Exclusion 1)			81.8 nM	apparent KD of MS2 coat protein [3]: 62.6 nM; apparent KD of MS2 coat protein [4]: 78.8 nM

Sequence	apparent KD of MS2 coat protein (input ligand: FMN 200 uM)	apparent KD of MS2 coat protein (input ligand: none)	apparent KD of MS2 coat protein [2]	further results
GUUAACGCAGGAUAUUAGUACAUGUACAUGAGGAUCACCCAUGUUUAGUGGGUCUAGGAAUAAGAAGGGCGAUGAA [JR_Ex5_Sub007] (Eterna round: R97, puzzle: Exclusion 5)	280 nM	535 nM		
GUUAAGUGAGGAUAUGGUAAAUUAAUUAUUAAUUAAUUAAUCCAGAAGGCACAUGAGGAUCACCCAUGUAAAUG [Mat - Exclusion 4 - D87] (puzzle: Exclusion 4)			30.5 nM	apparent KD of MS2 coat protein [3]: 54.6 nM; apparent KD of MS2 coat protein [4]: 31.5 nM
GUUAGACAUGAGGAUCACCCAUGUGAGGAUAUGAUGCGAUCGUGCUGACAUGAUCGCAUCAGAAGGCACAUAUG [Mat - Mod of JL D66] (puzzle: Exclusion 1)			95.7 nM	
GUUAGUUAAGGAUAUACAGGGAGCUGCGGCGUCUCGCCGCAACAUGAGGAUCACCCAUGUAGAAGGUGGCCAUU [JL ViennaUCT Enbibi mod 3] (puzzle: Exclusion 2)			471 nM	
GUUAUGUAAGGAUAUAUGAGUCACGGAAAUAAACCGUGAAGAUAGAAGGUACAUGAGGAUCACCCAUGUAAGGC [Mod of Anonveat 9 - Jieux - Exclusion 4] (Eterna round: R97, puzzle: Exclusion 4)	16.7 nM	14 nM		
GUUAUGUCAGGAUAUGCUAAUGAUGAGUGCUCAGACAUGAUGCAGAAGGGACAUGAGGAUCACCCAUGUACUGA [EX4 #12] (Eterna round: R97, puzzle: Exclusion 4)	102 nM	35.3 nM		
GUUCGACAUGAGGAUCACCCAUGUGAGGAUAUACGAUUAGCUGCUAGGUAGUUAGUAUGUAGAAGGUGCAUGAA [EX1 #73] (Eterna round: R97, puzzle: Exclusion 1)	55.2 nM	41.7 nM		
GUUCGACAUGAGGAUCACCCAUGUGAGGAUAUACGAUUAGCUGCUAGGUAGUUAGUAUGUAGAAGGUGCGUGAA [EX1 #72] (Eterna round: R97, puzzle: Exclusion 1)	44 nM	41.6 nM		
GUUGCUACUGAGGAUAUUAUUUUACCCGACUGAUAAGAAGGCAGUACAUGAGGAUCACCCAUGUGGGUAGCCAG [Polaris15] (Eterna round: R97, puzzle: Exclusion 6)	44.1 nM	21.8 nM		
GUUGUGUGAGGAUAUGCCUGGCCGUGAGGCCAGAUUGAGUGGCAGAAGGUACAUGAGGAUCACCCAUGUACGGG [salish99_ex4_4_004] (Eterna round: R97, puzzle: Exclusion 4)	54.1 nM	24.4 nM		
GUUGUUCGAGGAUAUACAUGAGGAUCACCCAUGUGUGUUGUGGGCGACGUUCGUUUAUGUAGAAGGCGGGCGGC [-27.2, -23.9 kcal, 19% A] (Eterna round: R97, puzzle: Exclusion 3)	78.2 nM	50.1 nM		
GUUUAGUGAGGAUAUAAGGCUUCGAUCGAGCGCGGUCUGCUACAGAAGGCACAUGAGGAUCACCCAUGUUUCUC [salish99_ex4_r4_311] (Eterna round: R97, puzzle: Exclusion 4)	29.2 nM	34.4 nM		
GUUUCACAUGAGGAUCACCCAUGUGAGGAUAUGAAUUUGUUAACCGUAGUUAAUAGAUUCAGAAGGCGCGUGAU [JRxlusion 1- Jieux - Exclusion 1] (Eterna round: R97, puzzle: Exclusion 1)	66.6 nM	70.3 nM		
GUUUGCACGCUGCGGUCCUACAUGAGGAUCACCCAUGUGGUCUGGUGGCGUGGGUCGCCGGACUUGGCUCGUCUUGG [salish99_S_TOV1_R5_039] (Eterna round: R97, puzzle: Sensor, turn-off variant 1)	15 nM	14.8 nM		
UAAAAGAAAGUAAGGAUAUCUAAAUUGGAAAAGAGAGAGAAGGUACAUGAGGAUCACCCAUGUAGGGUAUCCUG [Ritien] (Eterna round: R97, puzzle: Brourd's mod of Exclusion 4)	41.8 nM	42.2 nM		
UAAAAGCUAGGAUAUACAUGAGGAUCACCCAUGUACCGGCUUGGCCCUGGUCCUAAAUGUAGAAGGAGCACGCC [Zarebebi] (puzzle: Exclusion 3)			14.2 nM	
UAAAGUGAGUCCUCGCAGCAGCGUAGGGCGGUGCUAGCUACAUGAGGAUCACCCAUGUUUUCGCUCGUCCAGCACCU [Ceaorreti] (Eterna round: R96, puzzle: Sensor v2, turn-off variant 2)	89.2 nM	101 nM		apparent KD of MS2 coat protein [1]: 59.2 nM
UAAAUGUGAGGAUAUCAGGUGUGCUAGAGAACUGGUACAUCUGAGAAGGCACAUGAGGAUCACCCAUGUUCUUC [Mat - Exclusion 4 - Mod of JL - D56] (puzzle: Exclusion 4)			38.3 nM	
